Experimental data published in publication PMC12248280.

Molecular target: hDPP4-Fc (human DPP4 residues 39 to 766 fused at its C terminus to the Fc domain of human IgG) (human) (UniProt P27487)
Assay: BLI

UniProt P27487, sequence (P27487 39-766): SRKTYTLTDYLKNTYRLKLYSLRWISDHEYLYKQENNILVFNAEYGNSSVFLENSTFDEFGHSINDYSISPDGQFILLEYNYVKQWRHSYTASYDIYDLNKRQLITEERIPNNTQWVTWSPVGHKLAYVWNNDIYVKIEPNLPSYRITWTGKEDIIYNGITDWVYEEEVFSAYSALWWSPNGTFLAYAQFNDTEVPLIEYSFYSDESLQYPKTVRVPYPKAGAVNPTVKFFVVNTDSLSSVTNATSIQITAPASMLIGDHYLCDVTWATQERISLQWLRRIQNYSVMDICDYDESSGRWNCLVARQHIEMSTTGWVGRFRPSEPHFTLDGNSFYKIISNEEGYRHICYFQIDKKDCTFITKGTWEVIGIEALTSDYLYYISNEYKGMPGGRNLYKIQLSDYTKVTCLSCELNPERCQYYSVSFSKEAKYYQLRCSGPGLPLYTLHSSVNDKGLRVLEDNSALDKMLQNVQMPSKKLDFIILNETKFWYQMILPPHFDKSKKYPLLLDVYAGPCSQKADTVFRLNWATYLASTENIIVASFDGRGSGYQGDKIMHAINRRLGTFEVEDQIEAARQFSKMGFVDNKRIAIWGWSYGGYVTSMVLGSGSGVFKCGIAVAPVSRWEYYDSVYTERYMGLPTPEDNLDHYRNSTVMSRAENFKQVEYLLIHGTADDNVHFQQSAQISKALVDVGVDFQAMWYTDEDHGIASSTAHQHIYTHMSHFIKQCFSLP

GD-BatCoV-S (GD-BatCoV S-trimer, GD-BatCoV-S-6P) (domain or fragment)
Kd: 5.3 nM
